Source: patent US20190062427A1

Assays:
[1] = biological target: human Siglec-9 expressed on human cells (human) (UniProt Q9Y336); test: cell-based or functional assay
[2] = biological target: human Siglec-9 expressed on human cells (human) (UniProt Q9Y336); test: flow cytometry on human primary monocytes, 10 ug/ml mAb, PE secondary
[3] = biological target: human Siglec-9 expressed on human cells (human) (UniProt Q9Y336); test: flow cytometry on human primary macrophages, 10 ug/ml mAb, PE secondary
[4] = biological target: human Siglec-9 expressed on human cells (human) (UniProt Q9Y336); test: flow cytometry on human primary dendritic cells, 10 ug/ml mAb, PE secondary
[5] = biological target: Histidine-tagged human Siglec-9 (NovoProtein) (human) (UniProt Q9Y336); test: SPR Biacore T200, 25 C, 25 nM mAb captured on anti-mouse IgG CM5 chip, His-tagged Siglec-9 200 nM as analyte, single-concentration 1:1 fit
[6] = biological target: Siglec-9-Fc (R&D Systems, catalog number 1139-SL-050) (human) (UniProt Q9Y336); test: FACS ligand competition: 25 ug/ml mAb pre-coupled with 25 ug/ml Siglec-9-Fc, binding to sialic acid ligands on U937 cells, anti-human IgG-PE
Siglec-9-Fc (R&D Systems, catalog number 1139-SL-050) (human), sequence (Q9Y336 18-348 limits assumed): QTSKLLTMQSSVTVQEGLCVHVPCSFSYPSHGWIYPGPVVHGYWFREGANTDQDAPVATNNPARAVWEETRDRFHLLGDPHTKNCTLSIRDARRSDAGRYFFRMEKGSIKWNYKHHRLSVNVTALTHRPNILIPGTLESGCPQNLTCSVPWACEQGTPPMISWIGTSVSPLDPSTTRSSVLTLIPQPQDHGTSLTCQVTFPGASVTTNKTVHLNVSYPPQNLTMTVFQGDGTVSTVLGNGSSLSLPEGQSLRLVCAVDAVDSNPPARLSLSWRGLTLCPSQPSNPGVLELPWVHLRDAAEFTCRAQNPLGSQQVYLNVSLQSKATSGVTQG

human Siglec-9 expressed on human cells (human), sequence (Q9Y336 18-463): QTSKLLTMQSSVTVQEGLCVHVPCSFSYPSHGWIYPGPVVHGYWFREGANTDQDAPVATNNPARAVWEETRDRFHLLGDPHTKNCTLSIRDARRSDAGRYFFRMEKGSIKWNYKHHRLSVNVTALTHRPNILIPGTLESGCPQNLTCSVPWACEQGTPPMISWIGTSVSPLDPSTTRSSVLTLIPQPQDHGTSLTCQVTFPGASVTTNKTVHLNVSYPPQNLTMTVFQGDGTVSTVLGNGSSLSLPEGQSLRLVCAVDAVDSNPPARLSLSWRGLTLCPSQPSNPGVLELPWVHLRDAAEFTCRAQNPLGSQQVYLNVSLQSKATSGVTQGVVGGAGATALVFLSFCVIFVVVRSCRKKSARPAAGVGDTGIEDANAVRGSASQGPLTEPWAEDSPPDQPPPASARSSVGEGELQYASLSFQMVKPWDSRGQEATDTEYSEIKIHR
Histidine-tagged human Siglec-9 (NovoProtein) (human), sequence (Q9Y336 18-348 limits assumed): as the sequence (Q9Y336 18-348 limits assumed) above

- Percent Siglec-9 Surface Expression, DCs (% Siglec-9) [1]: 60.2%
- Percent Siglec-9 Surface Expression, Macrophages (% Siglec-9) [1]: 21.3%
- Percent Siglec-9 Surface Expression, Microglia (% Siglec-9) [1]: 45.4%
- Percent Siglec-9 Surface Expression, Monocytes (% Siglec-9) [1]: 42.2%
- Percent Siglec-9 Surface Expression, THP-1 cells (% Siglec-9) [1]: 62.6%
- % Positive [2]: 29.6%
- MFI [2]: 198
- % Positive [3]: 93.5%
- MFI [3]: 473
- % Positive [4]: 27.6%
- MFI [4]: 197
- Kd [5]: 6.7 nM
- Percent Siglec-9-Fc Binding [6]: 97.8%
B1: anti-Siglec-9 antibody 6D8 (antibody, IgG2b, V domains shown, part only)
VH: VQLQQSGAELVKPGASVKLSCKASGYTFTSYWMHWVKQRPGQGLEWIGEIDPSDSYTYYNQKFKGKATLTVDKSSSTAYMQLSSLTSEDSAVYYCAAYYSNYVRAYWGQGTLVTVSA
VL: DIQKPQSPFYMCVSGGETISISSHTTRGIYWYKGGSAEKPEKPFKLEIYCARNGEGGAPSRFSGRGSGTDFSLTINRGESEDCAEYYCAQFYQFPWTFGGGTKLEIK
